This assay has as its target T1, recombinant Factor VIII (CSL627, rVIII-SingleChain) (Homo sapiens (Human), UniProt P00451 20-2351).
T1 construct: also called FVIII
T1 sequence: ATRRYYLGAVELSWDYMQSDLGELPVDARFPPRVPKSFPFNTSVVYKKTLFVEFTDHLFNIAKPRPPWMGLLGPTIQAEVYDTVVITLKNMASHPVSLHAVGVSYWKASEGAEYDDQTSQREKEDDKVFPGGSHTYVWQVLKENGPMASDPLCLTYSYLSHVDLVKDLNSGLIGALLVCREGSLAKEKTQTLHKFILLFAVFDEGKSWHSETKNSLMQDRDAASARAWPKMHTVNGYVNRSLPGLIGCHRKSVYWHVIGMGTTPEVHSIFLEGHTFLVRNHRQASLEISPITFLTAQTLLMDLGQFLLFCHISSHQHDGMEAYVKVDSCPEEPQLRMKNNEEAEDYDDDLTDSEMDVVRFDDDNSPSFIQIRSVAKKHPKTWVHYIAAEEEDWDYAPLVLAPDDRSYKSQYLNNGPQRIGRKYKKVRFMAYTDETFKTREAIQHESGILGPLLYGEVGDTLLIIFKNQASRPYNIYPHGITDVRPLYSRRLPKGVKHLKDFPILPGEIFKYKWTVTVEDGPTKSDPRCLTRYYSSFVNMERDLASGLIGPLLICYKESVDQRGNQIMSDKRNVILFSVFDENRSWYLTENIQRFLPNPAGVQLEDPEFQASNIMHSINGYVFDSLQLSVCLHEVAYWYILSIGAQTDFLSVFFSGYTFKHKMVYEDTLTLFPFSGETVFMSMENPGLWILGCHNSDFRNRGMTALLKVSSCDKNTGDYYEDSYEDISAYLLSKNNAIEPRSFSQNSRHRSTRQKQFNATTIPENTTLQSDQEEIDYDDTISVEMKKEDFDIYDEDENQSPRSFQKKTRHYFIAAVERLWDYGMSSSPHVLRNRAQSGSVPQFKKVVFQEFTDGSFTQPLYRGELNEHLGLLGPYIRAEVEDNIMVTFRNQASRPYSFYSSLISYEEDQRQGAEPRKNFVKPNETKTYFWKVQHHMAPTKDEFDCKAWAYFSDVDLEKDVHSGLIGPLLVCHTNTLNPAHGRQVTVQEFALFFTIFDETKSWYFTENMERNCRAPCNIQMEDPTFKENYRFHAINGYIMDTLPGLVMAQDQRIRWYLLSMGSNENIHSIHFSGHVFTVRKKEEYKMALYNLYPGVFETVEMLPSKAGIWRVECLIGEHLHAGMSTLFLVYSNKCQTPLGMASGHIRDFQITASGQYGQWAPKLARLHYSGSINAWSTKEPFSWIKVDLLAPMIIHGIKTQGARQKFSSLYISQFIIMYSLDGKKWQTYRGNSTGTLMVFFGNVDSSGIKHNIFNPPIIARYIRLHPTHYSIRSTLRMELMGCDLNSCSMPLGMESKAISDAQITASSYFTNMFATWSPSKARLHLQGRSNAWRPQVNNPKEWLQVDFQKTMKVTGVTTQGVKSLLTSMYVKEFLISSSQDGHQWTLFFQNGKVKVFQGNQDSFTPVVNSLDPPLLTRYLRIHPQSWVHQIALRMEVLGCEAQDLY
Briefly: SPR, anti-His capture. As to the method: Binding kinetics were investigated by surface plasmon resonance using a Biacore 4000 biosensor at 37° C. Each mutant was captured from cell culture medium to a density of 40-150 RU on a CM-5 sensor chip pre-immobilised with anti-His antibody (14,000 RU). In an initial screening study, FVIII was injected over the captured mutants for 5 minutes at 1 nM and dissociation monitored for 5 minutes.
All sensorgrams were double referenced by subtraction of signals from a reference spot (containing only immobilised anti His antibody) and from a blank injection. Binding kinetics were determined by fitting the double referenced sensorgrams to a 1:1 kinetic model.
For orientation: Surface plasmon resonance follows binding to a sensor surface in real time, without labels.

The record followed here is patent US20190015483A1 (CSL BEHRING RECOMBINANT FACILITY, published 2019).

B1: Hu-vWF[764-1270]-8His S764P-K773I (other)
chain: PLSCRPPMVILVCPADNLRAEGLECTKTCQNYDLECMSMGCVSGCLCPPGMVRHENRCVALERCPCFHQGKEYAPGETVKIGCNTCVCRDRKWNCTDHVCDATCSTIGMAHYLTFDGLKYLFPGECQYVLVQDYCGSNPGTFRILVGNKGCSHPSVKCKKRVTILVEGGEIELFDGEVNVKRPMKDETHFEVVESGRYIILLLGKALSVVWDRHLSISVVLKQTYQEKVCGLCGNFDGIQNNDLTSSNLQVEEDPVDFGNSWKVSSQCADTRKVPLDSSPATCHNNIMKQTMVDSSCRILTSDVFQDCNKLVDPEPYLDVCIYDTCSCESIGDCACFCDTIAAYAHVCAQHGKVVTWRTATLCPQSCEERNLRENGYECEWRYNSCAPACQVTCQHPEPLACPVQCVEGCHAHCPPGKILDELLQTCVDPEDCPVCEVAGRRFASGKKVTLNPSDPEHCQICHCDVVNLTCEACQEPGGLVVPPTDAPVSPTTLYVEDISEPPLHDFHHHHHHHH
Take B1: the Kd (as a rule, the free concentration of one partner at which half of the binding sites on the other are occupied at equilibrium, for simple one-to-one binding) came to 0.00943 nM; the koff (usually the first-order rate constant of dissociation) was 0.000169 s⁻¹; the kon (as a rule, the second-order rate constant of association) turned out to be 1.79e+07 M⁻¹ s⁻¹.

B2: Hu-vWF[764-1270]-8His S764P-K773M (other)
chain: PLSCRPPMVMLVCPADNLRAEGLECTKTCQNYDLECMSMGCVSGCLCPPGMVRHENRCVALERCPCFHQGKEYAPGETVKIGCNTCVCRDRKWNCTDHVCDATCSTIGMAHYLTFDGLKYLFPGECQYVLVQDYCGSNPGTFRILVGNKGCSHPSVKCKKRVTILVEGGEIELFDGEVNVKRPMKDETHFEVVESGRYIILLLGKALSVVWDRHLSISVVLKQTYQEKVCGLCGNFDGIQNNDLTSSNLQVEEDPVDFGNSWKVSSQCADTRKVPLDSSPATCHNNIMKQTMVDSSCRILTSDVFQDCNKLVDPEPYLDVCIYDTCSCESIGDCACFCDTIAAYAHVCAQHGKVVTWRTATLCPQSCEERNLRENGYECEWRYNSCAPACQVTCQHPEPLACPVQCVEGCHAHCPPGKILDELLQTCVDPEDCPVCEVAGRRFASGKKVTLNPSDPEHCQICHCDVVNLTCEACQEPGGLVVPPTDAPVSPTTLYVEDISEPPLHDFHHHHHHHH
With B2, the Kd was determined as 0.0108 nM, the koff amounted to 0.00017 s⁻¹ and the kon was determined as 1.58e+07 M⁻¹ s⁻¹.

B3: Hu-vWF[764-1270]-8His S764P-K773L (other)
chain: PLSCRPPMVLLVCPADNLRAEGLECTKTCQNYDLECMSMGCVSGCLCPPGMVRHENRCVALERCPCFHQGKEYAPGETVKIGCNTCVCRDRKWNCTDHVCDATCSTIGMAHYLTFDGLKYLFPGECQYVLVQDYCGSNPGTFRILVGNKGCSHPSVKCKKRVTILVEGGEIELFDGEVNVKRPMKDETHFEVVESGRYIILLLGKALSVVWDRHLSISVVLKQTYQEKVCGLCGNFDGIQNNDLTSSNLQVEEDPVDFGNSWKVSSQCADTRKVPLDSSPATCHNNIMKQTMVDSSCRILTSDVFQDCNKLVDPEPYLDVCIYDTCSCESIGDCACFCDTIAAYAHVCAQHGKVVTWRTATLCPQSCEERNLRENGYECEWRYNSCAPACQVTCQHPEPLACPVQCVEGCHAHCPPGKILDELLQTCVDPEDCPVCEVAGRRFASGKKVTLNPSDPEHCQICHCDVVNLTCEACQEPGGLVVPPTDAPVSPTTLYVEDISEPPLHDFHHHHHHHH
As to B3, the Kd turned out to be 1.24 nM, the koff is 0.000572 s⁻¹ and the kon was found to be 460000 M⁻¹ s⁻¹.

B4: Hu-vWF[764-1270]-8His S764P-K773P (other)
chain: PLSCRPPMVPLVCPADNLRAEGLECTKTCQNYDLECMSMGCVSGCLCPPGMVRHENRCVALERCPCFHQGKEYAPGETVKIGCNTCVCRDRKWNCTDHVCDATCSTIGMAHYLTFDGLKYLFPGECQYVLVQDYCGSNPGTFRILVGNKGCSHPSVKCKKRVTILVEGGEIELFDGEVNVKRPMKDETHFEVVESGRYIILLLGKALSVVWDRHLSISVVLKQTYQEKVCGLCGNFDGIQNNDLTSSNLQVEEDPVDFGNSWKVSSQCADTRKVPLDSSPATCHNNIMKQTMVDSSCRILTSDVFQDCNKLVDPEPYLDVCIYDTCSCESIGDCACFCDTIAAYAHVCAQHGKVVTWRTATLCPQSCEERNLRENGYECEWRYNSCAPACQVTCQHPEPLACPVQCVEGCHAHCPPGKILDELLQTCVDPEDCPVCEVAGRRFASGKKVTLNPSDPEHCQICHCDVVNLTCEACQEPGGLVVPPTDAPVSPTTLYVEDISEPPLHDFHHHHHHHH
With B4, the Kd was found to be 0.0222 nM, the koff was 0.000501 s⁻¹ and the kon was 2.26e+07 M⁻¹ s⁻¹.

B5: Hu-vWF[764-1270]-8His S764P-K773Q (other)
chain: PLSCRPPMVQLVCPADNLRAEGLECTKTCQNYDLECMSMGCVSGCLCPPGMVRHENRCVALERCPCFHQGKEYAPGETVKIGCNTCVCRDRKWNCTDHVCDATCSTIGMAHYLTFDGLKYLFPGECQYVLVQDYCGSNPGTFRILVGNKGCSHPSVKCKKRVTILVEGGEIELFDGEVNVKRPMKDETHFEVVESGRYIILLLGKALSVVWDRHLSISVVLKQTYQEKVCGLCGNFDGIQNNDLTSSNLQVEEDPVDFGNSWKVSSQCADTRKVPLDSSPATCHNNIMKQTMVDSSCRILTSDVFQDCNKLVDPEPYLDVCIYDTCSCESIGDCACFCDTIAAYAHVCAQHGKVVTWRTATLCPQSCEERNLRENGYECEWRYNSCAPACQVTCQHPEPLACPVQCVEGCHAHCPPGKILDELLQTCVDPEDCPVCEVAGRRFASGKKVTLNPSDPEHCQICHCDVVNLTCEACQEPGGLVVPPTDAPVSPTTLYVEDISEPPLHDFHHHHHHHH
For the molecule B5, the Kd was found to be 0.0288 nM, the koff was found to be 0.000128 s⁻¹ and the kon is 4.44e+06 M⁻¹ s⁻¹.

B6: Hu-vWF[764-1270]-8His S764P-K773R (other)
chain: PLSCRPPMVRLVCPADNLRAEGLECTKTCQNYDLECMSMGCVSGCLCPPGMVRHENRCVALERCPCFHQGKEYAPGETVKIGCNTCVCRDRKWNCTDHVCDATCSTIGMAHYLTFDGLKYLFPGECQYVLVQDYCGSNPGTFRILVGNKGCSHPSVKCKKRVTILVEGGEIELFDGEVNVKRPMKDETHFEVVESGRYIILLLGKALSVVWDRHLSISVVLKQTYQEKVCGLCGNFDGIQNNDLTSSNLQVEEDPVDFGNSWKVSSQCADTRKVPLDSSPATCHNNIMKQTMVDSSCRILTSDVFQDCNKLVDPEPYLDVCIYDTCSCESIGDCACFCDTIAAYAHVCAQHGKVVTWRTATLCPQSCEERNLRENGYECEWRYNSCAPACQVTCQHPEPLACPVQCVEGCHAHCPPGKILDELLQTCVDPEDCPVCEVAGRRFASGKKVTLNPSDPEHCQICHCDVVNLTCEACQEPGGLVVPPTDAPVSPTTLYVEDISEPPLHDFHHHHHHHH
In the case of B6, the Kd is 0.0116 nM, the koff was 7.42e-05 s⁻¹ and the kon was 6.39e+06 M⁻¹ s⁻¹.

B7: Hu-vWF[764-1270]-8His S764P-K773N (other)
chain: PLSCRPPMVNLVCPADNLRAEGLECTKTCQNYDLECMSMGCVSGCLCPPGMVRHENRCVALERCPCFHQGKEYAPGETVKIGCNTCVCRDRKWNCTDHVCDATCSTIGMAHYLTFDGLKYLFPGECQYVLVQDYCGSNPGTFRILVGNKGCSHPSVKCKKRVTILVEGGEIELFDGEVNVKRPMKDETHFEVVESGRYIILLLGKALSVVWDRHLSISVVLKQTYQEKVCGLCGNFDGIQNNDLTSSNLQVEEDPVDFGNSWKVSSQCADTRKVPLDSSPATCHNNIMKQTMVDSSCRILTSDVFQDCNKLVDPEPYLDVCIYDTCSCESIGDCACFCDTIAAYAHVCAQHGKVVTWRTATLCPQSCEERNLRENGYECEWRYNSCAPACQVTCQHPEPLACPVQCVEGCHAHCPPGKILDELLQTCVDPEDCPVCEVAGRRFASGKKVTLNPSDPEHCQICHCDVVNLTCEACQEPGGLVVPPTDAPVSPTTLYVEDISEPPLHDFHHHHHHHH
Consider B7, for which the Kd turned out to be 0.0631 nM, the koff is 0.000347 s⁻¹ and the kon is 5.5e+06 M⁻¹ s⁻¹.
